Assay results reported in publication PMC3775653 (Journal of the American Chemical Society, 2013).

Molecular target: the molecule itself
Experiment: AUC

B1: AmpDh2 (zinc protease of Pseudomonas aeruginosa), recombinant, without the 17-amino-acid N-terminal membrane anchor (enzyme)
chain: SSGPRLNTDYTSANQDSRVQFIVLHYTSTDLPHSLGILTHGGVSAHYLIGDDEPATVYRLVDENRRAWHAGVSEWQGRTWLNATSIGIEIVNQGYRDTPQGRVWYPFSEAQIQALIPLLKDIAKRHGITPDRIIGHSDIAPGRKVDPGPLFPWKRLADAGLVPWPKPGELARRLAELNGQLPDVRWFQQQLARHGYLVPQTGELEKDTRDVIGAFQMKYRPARFDGEPDLETAALLLAVPTS
Q: B1 was tested. Which “stoichiometry N” value did it give?
A: Its value is 2.
